Laboratory results from doi:10.1101/2025.04.28.650843 (bioRxiv, 2025).

Biological target: the molecule itself
Assay: cryo-EM structure; single-particle reconstruction of intact PBS isolated from Synechococcus 7942 in 0.75 M K/Na-PO4 pH 7.0 with 0.0125% glutaraldehyde; diluted on the grid with 50 mM Tris pH 7.0; 2.98 Å

B1: phycocyanin (PC) (complex)
chain 1: not shown
chain 2: MTFDAFTKVVAQADARGEFLSDAQLDALSRLVAEGNKRIDTVNRITGNASSIVANAARALFAEQPSLIAPGGNAYTNRRMAACLRDMEIILRYVTYAVFTGDASILDDRCLNGLRETYLALGVPGASVAEGVRKMKDAAVAIVSDRNGITQGDCSAIISELGSYFDKAAAAVA
modifications: covalently attached phycocyanobilin (PCB), positions not printed | covalently attached phycocyanobilin (PCB), positions not given
notes: as m5; as m2; The alpha-beta monomer; it forms the hexamers of the peripheral rods (72 alpha-beta monomers in six rods of two hexamers each); also called alpha-beta monomer of phycocyanin
B1 was tested, and the “stoichiometry N” value was 6.
